Values quoted from earlier work in PMC3670934.

Assays:
[1] = molecular target: CCL26 (Homo sapiens) (UniProt Q9Y258)
[2] = molecular target: CCL24 (Homo sapiens) (UniProt O00175)
[3] = molecular target: CCL11 (Homo sapiens) (UniProt P51671)
CCL11 (Homo sapiens), sequence (P51671 24-97): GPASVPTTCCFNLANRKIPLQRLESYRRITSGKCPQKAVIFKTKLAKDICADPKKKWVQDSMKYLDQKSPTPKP

CCR3, sequence (P51677 whole entry): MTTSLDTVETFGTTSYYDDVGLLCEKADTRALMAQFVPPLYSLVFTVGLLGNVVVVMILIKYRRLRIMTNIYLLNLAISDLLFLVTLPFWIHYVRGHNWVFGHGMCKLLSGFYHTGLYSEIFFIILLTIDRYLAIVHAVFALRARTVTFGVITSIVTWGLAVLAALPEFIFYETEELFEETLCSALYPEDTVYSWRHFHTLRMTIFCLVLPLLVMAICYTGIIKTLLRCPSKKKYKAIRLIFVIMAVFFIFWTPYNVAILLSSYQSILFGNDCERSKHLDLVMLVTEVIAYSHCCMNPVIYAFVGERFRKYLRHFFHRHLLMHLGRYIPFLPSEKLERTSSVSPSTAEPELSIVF
CCL26 (Homo sapiens), sequence (Q9Y258 24-94): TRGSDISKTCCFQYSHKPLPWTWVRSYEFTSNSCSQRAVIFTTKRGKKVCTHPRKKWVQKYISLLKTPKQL
CCL24 (Homo sapiens), sequence (O00175 27-119): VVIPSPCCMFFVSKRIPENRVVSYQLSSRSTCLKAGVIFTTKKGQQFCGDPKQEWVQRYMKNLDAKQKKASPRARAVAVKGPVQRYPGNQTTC

Q: What does the source list for CCR3 (from UniProt P51677)?
A: Kd [1]: 0.9 nM; Kd [2]: 0.6 nM; Kd [3]: 0.52 nM
